{"source": "patent US20110091460A1", "molecular_target": "interleukin 13 receptor (IL13R) (human)", "assay": "cell-based or functional assay", "data": [{"substance": "DTIL13 (ligand)", "values": [{"measurement": "IC50, inhibition of Calu-3 cell growth (3H-thymidine proliferation assay, 72 h)", "value": 3.1, "unit": "nM"}, {"measurement": "IC50, inhibition of HT-29 cell growth (3H-thymidine proliferation assay, 72 h)", "value": 95, "unit": "nM"}, {"measurement": "IC50, inhibition of PC-3 cell growth (3H-leucine proliferation assay, 72 h)", "value": 0.038, "unit": "nM"}, {"measurement": "IC50, killing of DU-145 cells (3H-thymidine proliferation assay, 72 h)", "value": "> 100", "unit": "nM"}, {"measurement": "IC50, killing of U87 MG cells (3H-thymidine proliferation assay, 72 h)", "value": 10, "unit": "nM"}, {"measurement": "IC50, killing of U118 cells (3H-thymidine proliferation assay, 72 h)", "value": 2, "unit": "nM"}]}]}
